Here are results for one protein from paper PMC2730839.

Substrate in this data set: O=C(O)C(=O)c1ccccc1
Description: steady-state kinetics. As to conditions: thiamin diphosphate (ThDP), Mg2+ active site. In kind it is biochemical, Pseudomonas putida.

B1: benzoylformate decarboxylase (BFDC) (Pseudomonas putida) (protein)
chain: MASVHGTTYELLRRQGIDTVFGNPGSNELPFLKDFPEDFRYILALQEACVVGIADGYAQASRKPAFINLHSAAGTGNAMGALSNAWNSHSPLIVTAGQQTRAMIGVEALLTNVDAANLPRPLVKWSYEPASAAEVPHAMSRAIHMASMAPQGPVYLSVPYDDWDKDADPQSHHLFDRHVSSSVRLNDQDLDILVKALNSASNPAIVLGPDVDAANANADCVMLAERLKAPVWVAPSAPRCPFPTRHPCFRGLMPAGIAAISQLLEGHDVVLVIGAPVFRYHQYDPGQYLKPGTRLISVTCDPLEAARAPMGDAIVADIGAMASALANLVEESSRQLPTAAPEPAKVDQDAGRLHPETVFDTLNDMAPENAIYLNESTSTTAQMWQRLNMRNPGSYYFCAAGGLGFALPAAIGVQLAEPERQVIAVIGDGSANYSISALWTAAQYNIPTIFVIMNNGTYGALRWFAGVLEAENVPGLDVPGIDFRALAKGYGVQALKADNLEQLKGSLQEALSAKGPVLIEVSTVSPVK
What is called Km is the concentration of substrate that gives half-maximal velocity. Turning to B1, the Michaelis constant (Km) came out at 760 ± 90 µM.
